Measurements from PMC11889887, “Blockade of αvβ6 and αvβ8 integrins with a chromogranin A-derived peptide inhibits TGFβ activation in tumors and suppresses tumor growth” (Journal of Experimental & Clinical Cancer Research : CR, 2025).
Bridge positions count the residues as written; N and C are the ends. Square brackets hold non-standard residues; d marks the D form. Ends that are not written are not given here. Lys(N3) = [N-]=[N+]=NCCCC[C@H](N)C(=O)O; Pra = C#CC[C@H](N)C(=O)O

Tests used:
[1] = molecular target: T1, biotinylated recombinant human αvβ6 integrin (human, UniProt P06756 31-1048; P18564 22-709, biotinylated (which chain is not stated) | biotinylated (which chain is not stated)); test: ELISA; competitive integrin binding assay (taken as Assay 3): plates coated with human latent TGFβ1; various amounts of peptide 5a or 5a-HSA with 10 ng/ml biotinylated αvβ6 or αvβ8 in 20 mM Tris-HCl pH 7.4, 150 mM sodium chloride, 1 mM manganese chloride, 0.05% Tween-20, 0.5% BSA, 1 h; HRP-labeled streptavidin; details: both partners purified
T1 construct: integrin alpha-V, human, recombinant; integrin beta-6, human, recombinant; Detected by HRP-labeled streptavidin through the biotin; also called biotinylated-αvβ6; source: bought: Acros CROBiosystems (cat. IT6-H82E4)

[2] = molecular target: T2, biotinylated recombinant human αvβ8 integrin (human, UniProt P06756 31-1048; P26012 43-684, biotinylated (which chain is not stated) | biotinylated (which chain is not stated)); test: as above; details: both partners purified
T2 construct: integrin alpha-V, human, recombinant; integrin beta-8, human, recombinant; Detected by HRP-labeled streptavidin through the biotin; also called biotinylated-αvβ8; source: bought: Acros CROBiosystems (cat. IT8-H82W5)

Ki [1]: 1.7 nM
Ki [2]: 3.9 nM
Binder: CFETLRGDLRILSILR[Pra]QNL[Lys(N3)]KELQD-NH2 (triazole 17-21) [peptide 5a]
